Our source for the Kd values is article PMC3972757 (Biochemistry, 2013).

The assay concerns the target ubiquitin (human, UniProt P0CG47 1-76). Nature of the assay: ITC.

A word on the Kd: it is the equilibrium constant for the complex coming apart. Higher therefore signals lower affinity.

B1: Phe320Ala mutant of the catalytic domain of AMSH (domain or fragment, human, UniProt O95630 219-424, looked up)
chain: SDCHTTVRPAKPPVVDRSLKPGALSNSESIPTIDGLRHVVVPGRLCPQFLQLASANTARGVETCGILCGKLMRNEFTITHVLIPKQSAGSDYCNTENEEELALIQDQQGLITLGWIHTHPTQTAFLSSVDLHTHCSYQMMLPESVAIVCSPKFQETGFFKLTDHGLEEISSCRQKGFHPHSKDPPLFCSCSHVTVVDRAVTITDLR
The molecule B1 gave an equilibrium dissociation constant (Kd) of 81 ± 15 µM.
